Experimental data reported in US20250340654A1 (INTERVET, published 2025).

What was measured:
[1] = biological target: T1, Canine IL-31RA ECD-10His (canine, biotin-labeled in the Octet assay (site not stated)); assay: BLI (Octet HTX), biotin-labeled canine IL-31RA on SA biosensors, 1:1 fit
T1 construct: The ELISA and Octet protocols say only 'IL-31RA' or 'canine IL-31RA'; also called cIL-31RA; canine IL-31 receptor alpha extracellular domain, HIS-tagged
T1 chain: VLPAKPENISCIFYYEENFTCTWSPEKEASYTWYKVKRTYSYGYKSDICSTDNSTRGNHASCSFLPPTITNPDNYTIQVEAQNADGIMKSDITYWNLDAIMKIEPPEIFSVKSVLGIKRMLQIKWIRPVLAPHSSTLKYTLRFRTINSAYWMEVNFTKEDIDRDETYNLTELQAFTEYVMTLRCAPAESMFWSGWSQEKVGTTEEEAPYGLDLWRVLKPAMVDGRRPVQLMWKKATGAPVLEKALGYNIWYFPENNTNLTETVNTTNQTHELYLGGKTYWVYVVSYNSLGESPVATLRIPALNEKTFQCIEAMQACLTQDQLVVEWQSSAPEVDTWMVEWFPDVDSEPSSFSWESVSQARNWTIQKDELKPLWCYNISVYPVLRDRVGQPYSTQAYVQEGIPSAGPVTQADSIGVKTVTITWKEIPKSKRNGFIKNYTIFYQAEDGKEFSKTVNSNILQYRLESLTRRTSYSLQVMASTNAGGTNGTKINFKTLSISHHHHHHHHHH
Procedure: These constants reflect the binding affinity of the individual monoclonal antibodies for canine IL-31 RA.
(§1) All kinetics measurements were performed by Octet HTX using SA biosensors and Data Acquisition 12.0 software. A biotin-labeled antigen (canine IL-31RA) was loaded onto the pre-rehydrated SA biosensors for 120s at a concentration of 1 μg/mL. Next, the biosensors were placed into Octet Kinetics Buffer (PBS+0.02% Tween 20, 0.1% BSA) for the blocking phase for 120s. Then, for the association phase, antigen loaded biosensors were placed into 2-fold serial dilutions from 100 nM down to 3.13 nM of anti-IL-31RA monoclonal antibody in Octet Kinetics Buffer for 300s. The last well was buffer alone and that sensor was used for reference sensor subtraction. Finally, the biosensors were placed into Octet Kinetics Buffer for the dissociation phase for 300s. Analysis was performed using Data Analysis 12.0 software and curves were fitted using a 1:1 binding model.

[2] = biological target: T1, Canine IL-31RA ECD-10His; assay: BLI (Octet), biotin-labeled canine IL-31RA on SA biosensors
Procedure: as §1
Two of the top blocking antibodies: 51F8 and 218D9, had KDs of about 0.2 nM and about 0.07 nM respectively (see, Table 5B below).

[3] = biological target: T1, Canine IL-31RA ECD-10His; assay: ELISA on coated canine IL-31RA, anti-canine IgG Fc-HRP (Example 11), the unit is that of the x axis 'Ab Log Conc. (ng/mL)'
Procedure: 1. Coat 200 ng/well of IL-31RA on an immunoplate and incubate the plate at 4° C. overnight. [0257] 2. Wash the plate 3 times with phosphate buffered saline (PBS) containing 0.05% Tween 20 (PBST). […] 3. Block the plate with 0.5% bovine serum albumin (BSA) in PBS for 45-60 min at room temperature. [0259] 4. Wash the plate 3 times with PBST. [0260] 5. Three-fold dilute the caninized antibody in each column or row of dilution plate starting at 0.3 μg/mL. [0261] 6. Transfer the diluted caninized antibody into each column or row of the immunoplate, and incubate the plate for 45-60 min at room temperature. [0262] 7. Wash the plate 3 times with PBST. [0263] 8. Add 1:4000 diluted horseradish peroxidase labeled anti-canine IgG Fc into each well of the plate, and then incubate the plate for 45-60 min at room temperature. [0264] 9. Wash the plate 3 times with PBST. [0265] 10. Add 3,3′,5,5′-tetramethylbenzidine (TMB) Substrate into each well of the plate, and incubate the plate for 10 to 15 min at room temperature to develop the color. [0266] 11. Add 100 μL 1.5 M phosphoric acid into each well to stop the reaction. Read plate at 450 nm with 540 nm reference wavelength.
As depicted in FIGS. 7A-7E, the caninized antibodies were tested for their reactivity to canine IL-31RA.

B1: 51F8 (antibody, V domains shown)
VH: EVQLQQSVAELVRPGASVKLSCTASGFNIKNTFIHWVKQRPEQGLEWIGRIDPANGNTKYAPKFQGRATLTADTSSNTAYLQLSSLTSEDTAIYYCARYYYVSSYFDVWGTGTTVTVSS
VL: SIVMTQTPKFLLVSAGDRVTITCKASQSVTNDVTWYQQKPGQSPKLLIFSASNRYTGVPDRFTGSGYGTDFTFTISTVQAEDLAVYFCQQDYSSPWTFGGGTKLEIK
notes: Mouse monoclonal antibody from a hybridoma; also called mouse mAb 51F8
Kd [1]: 0.207 nM
koff [1]: 0.000141 s⁻¹
kon [1]: 684000 M⁻¹ s⁻¹

B2: Chimeric 51F8 (antibody, V domains shown)
VH: EVQLQQSVAELVRPGASVKLSCTASGFNIKNTFIHWVKQRPEQGLEWIGRIDPANGNTKYAPKFQGRATLTADTSSNTAYLQLSSLTSEDTAIYYCARYYYVSSYFDVWGTGTTVTVSS
VL: SIVMTQTPKFLLVSAGDRVTITCKASQSVTNDVTWYQQKPGQSPKLLIFSASNRYTGVPDRFTGSGYGTDFTFTISTVQAEDLAVYFCQQDYSSPWTFGGGTKLEIK
notes: canine constant regions not specified; also called murine-canine chimeric 51F8
Kd [2]: 0.207 nM
koff [2]: 0.000141 s⁻¹
kon [2]: 684000 M⁻¹ s⁻¹
EC50 [3]: 3.42 ng/mL

B3: c51F8VH3VL6 (antibody, V domains shown)
VH: EVQLVQSGAEVKKPGASVKVSCTASGFNIKNTFIHWVRQAPGAGLDWIGRIDPANGNTKYAPKFQGRATLTADTSTNTAYMQLSSLRAGDIAVYYCARYYYVSSYFDVWGQGTLVTVSS
VL: DIVMTQTPLSLSVSPGETASISCKASQSVTNDVTWFRQKPGQSPQLLIYSASNRYTGVPDRFSGSGSGTDFTLRISTVEADDTGVYYCQQDYSSPWTFGQGTKLEIKR
notes: Caninized antibody; chains tied by name to c51F8VH3-cIgGBm and c51F8VL6-cCK; also called c51F8VH3L6
Kd [2]: 2.67 nM
koff [2]: 0.00114 s⁻¹
kon [2]: 428000 M⁻¹ s⁻¹
EC50 [3]: 16.9 ng/mL

B4: c51F8VH3VL7 (antibody, V domains shown)
VH: EVQLVQSGAEVKKPGASVKVSCTASGFNIKNTFIHWVRQAPGAGLDWIGRIDPANGNTKYAPKFQGRATLTADTSTNTAYMQLSSLRAGDIAVYYCARYYYVSSYFDVWGQGTLVTVSS
VL: DIVMTQTPLSLSVSPGETASISCKASQSVTNDVTWFRQKPGQSPKLLIYSASNRYTGVPDRFSGSGSGTDFTLRISTVEADDTGVYYCQQDYSSPWTFGQGTKLEIKR
notes: Caninized antibody; chains tied by name to c51F8VH3-cIgGBm and c51F8VL7-cCK; also called c51F8VH3L7
Kd [2]: 3.99 nM
koff [2]: 0.0016 s⁻¹
kon [2]: 401000 M⁻¹ s⁻¹
EC50 [3]: 25 ng/mL

B5: c51F8VH4VL6 (antibody, V domains shown)
VH: EVQLVQSGAEVVKPGASVKVSCTASGFNIKNTFIHWVRQRPGAGLDWIGRIDPANGNTKYAPKFQGRATLTADTSTNTAYMQLSSLRAGDIAVYYCARYYYVSSYFDVWGTGTLVTVSS
VL: DIVMTQTPLSLSVSPGETASISCKASQSVTNDVTWFRQKPGQSPQLLIYSASNRYTGVPDRFSGSGSGTDFTLRISTVEADDTGVYYCQQDYSSPWTFGQGTKLEIKR
notes: Caninized antibody; chains tied by name to c51F8VH4-cIgGBm and c51F8VL6-cCK; also called c51F8VH4L6
Kd [2]: 1.01 nM
koff [2]: 0.000448 s⁻¹
kon [2]: 445000 M⁻¹ s⁻¹
EC50 [3]: 8.31 ng/mL

B6: Chimeric 100H8 (antibody, V domains shown)
VH: EVQLQQSGPELVKPGASVKIPCKASGYTFTDYNMDWVKQSHGKSLEWIGHINPNNGGILYNQKFKGKATLTVDRSSNTAYMELRSLTSEDTAVYFCARWAPLVRQPYWYFDVWGTGTTVTVSS
VL: DIKMTQSPSSIFASLGERVTITCKASQDINSYLNWFQQKPGKSPKTLIYRADRLVDGVPSRFSGSGSGQDYSLTISSLEYEDMGIYYCLQYDEFPLTFGAGTKLELN
notes: also called murine-canine chimeric 100H8
EC50 [3]: 2.02 ng/mL

B7: c100H8VH7VL4 (antibody, V domains shown)
VH: EVQLVQSGAEVKKPGASVKVSCKASGYTFTDYNMDWVRQAPGAGLDWIGHINPNNGGILYNQKFKGKATLTADTSTSTAYMELSSLRAGDIAVYYCARWAPLVRQPYWYFDVWGQGTLVTVSS
VL: DIVMTQTPLSLSVSPGETASISCKASQDINSYLNWFRQKPGQSPQLLIYRADRLVDGVPDRFSGSGSGTDFTLRISTVEADDTGVYYCLQYDEFPLTFGAGTKVELKR
notes: Caninized antibody; chains tied by name to c100H8VH7-cIgGBm and c100H8VL4-cCK; also called c100H8VH7L4
EC50 [3]: 0.581 ng/mL

B8: Chimeric 85C10 (antibody, V domains shown)
VH: EFQLQQSGPELVKPGASVKISCKASGYSFTDYSINWVKQSNGKSLEWIGVINPNYGTSSHNQKFKGKATMTVDQSSSTAYMQLNSLTSEDSAVYYCARALDDYYFYWYFDVWGIGTTVTVSS
VL: DVVMTQTPLSLPVSLGDQASISCRSSQSLVHTNGNTYLHWYLQKPGQSPKLLIYKVSNRFSGVPDRFSGSGSGTDFTLKISRVEAEDLGVYFCSQTTHVPLTFGAGTKLELK
notes: canine constant regions not specified; also called murine-canine chimeric 85C10
EC50 [3]: 2.58 ng/mL

B9: Chimeric 224G3 (antibody, V domains shown)
VH: EVQLVESGGDLVKPGGSLKLSCAASGFTFSSYGMSWVRQTPDKRLEWVATISNGGSYTYYPDSVKGRFTISRDNAKNTLYMQMSSLKSEDTAMYYCARNEPPDYWGQGTSVTVSS
VL: QIVLTQSPAIMSASLGERVTMTCTASSSVGSSYLHWYQQKPGSSPKLWIYDTSNLASGVPVRFSGSGSGTSYSLTISSMEAEDAATYYCHQYHRSPYTFGGGTKLEIK
notes: canine constant regions not specified; also called m224G3 Chim
EC50 [3]: 0.383 ng/mL

B10: 100H8 (antibody, V domains shown)
VH: EVQLQQSGPELVKPGASVKIPCKASGYTFTDYNMDWVKQSHGKSLEWIGHINPNNGGILYNQKFKGKATLTVDRSSNTAYMELRSLTSEDTAVYFCARWAPLVRQPYWYFDVWGTGTTVTVSS
VL: DIKMTQSPSSIFASLGERVTITCKASQDINSYLNWFQQKPGKSPKTLIYRADRLVDGVPSRFSGSGSGQDYSLTISSLEYEDMGIYYCLQYDEFPLTFGAGTKLELN
notes: Mouse monoclonal antibody from a hybridoma; also called mouse mAb 100H8
Kd [1]: 0.152 nM
koff [1]: 0.00012 s⁻¹
kon [1]: 788000 M⁻¹ s⁻¹

B11: 74H10 (antibody, V domains shown)
VH: EVQLQQSGPELVKPGASMKIPCKTSGYTFTDYNMDWVKQSHGKSLEWIGHINPNNGGTLYNQKFKDKATLTVDRSSNTAYMELRSLTSEDTAVYYCARWAPLLRQPYWYFDVWGTGTTVTVSS
VL: DIKMTQSPSSMYASLGERVTITCKASQDINSYLNWFQQKPGKSPKTLIYRADRLVDGVPSRFSGSGSGQDYSLTISSLEYEDMGIYYCLQYDEFPLTFGDGTKLELN
notes: Mouse monoclonal antibody from a hybridoma; also called mouse mAb 74H10
Kd [1]: 0.196 nM
koff [1]: 9.05e-05 s⁻¹
kon [1]: 463000 M⁻¹ s⁻¹

B12: 222E7 (antibody, V domains shown)
VH: EVQLQQSGPELVKPGSSVKIPCKASGYTFTDYNMDWVKQSHGKSLEWIGHINPNIGGTLYNQKFKGKATLSVDKSSSTAYMELRSLTSEDTAVYYCARWAQLQRQPYWYFDVWGPGTTVTVSS
VL: DIKMTQSPSSMYASLGERVTITCKASQDINSYLNWFQQKPGKSPKTLIYRVNRLVDGVPSRFSGSGSGQDYSLTISSLEYEDMGIYYCLQYDEFPLTFGAGTKLELK
notes: Mouse monoclonal antibody from a hybridoma; also called mouse mAb 222E7
Kd [1]: 0.174 nM
koff [1]: 0.000282 s⁻¹
kon [1]: 1.62e+06 M⁻¹ s⁻¹

B13: 55B3 (antibody, V domains shown)
VH: EVQLQQSGPELVKPGASVKIPCKASGYTFTDYNMDWVKQSHGKSLEWIGHINPNTGGTIYNQKFKGKATLTVDKSSSTAYMDLRSLTSEDTAVYYCARWAQLLRQPYWYFDVWGTGTTVTVSS
VL: DIKMTQSPSSMYASLGERVTITCKASQDINSYFNWVQQKPGKSPKTLIFRANRLVDGVPSRFSGSGSGQDYSLTINSLEYEDMGIYYCLQYDEFPLTFGAGTKLELK
notes: Mouse monoclonal antibody from a hybridoma; also called mouse mAb 55B3
Kd [1]: 0.272 nM
koff [1]: 0.000154 s⁻¹
kon [1]: 568000 M⁻¹ s⁻¹

B14: 65G9 (antibody, V domains shown)
VH: EFQLQQSGPELVKPGASVKISCKASGYSFTDYGMNWLKQINGKSLEWIAIINPNYGTASSNPKFKDKATLTVDHSSSTAYMQLSSLTSEDSAVYYCARAFDGYYFYWYFDVWGTGTTVTVSS
VL: DVVMTQTPLSLPVSLGDQASISCRSSQSLIHTNGNTYLHWYLQKPGQSPKLLIYKVSNRFSGVPDRFSGSGSGTDFTLKISRLEAEDLGVYFCSQSTHVPLTFGAGTKLELR
notes: Mouse monoclonal antibody from a hybridoma; also called mouse mAb 65G9
Kd [1]: 0.451 nM
koff [1]: 0.000355 s⁻¹
kon [1]: 787000 M⁻¹ s⁻¹
